From the supplement of paper PMC10126150
± gives the standard deviation of the averaged measurements.

Each sequence was assayed on ATP (assay: switch fluorescence ratio, 500 uM ATP over buffer (Cy3 cluster intensity, sum of 5 cycles each) (fold (ratio)); higher = stronger signal-on switching upon ATP binding; sequences stand for … in TCGTCGGCAGCGTCAGATGTGTATAAGAGACAGTTTTTTTTTTTTTTTTTTTTTTTTT…TC). Conditions: aptamer strand: ATP DNA aptamer (quencher-CACCTGGGGGAGTATTGCGGAGGAAGG + anchor), 100 nM annealed; ATP concentration: 500 uM.
Summary of the method: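 Between each of five buffer/ATP cycles, the flow-cell was stripped with NaOH and re-annealed. Each cycle imaged Cy3-labelled switching-strand clusters, annealed to 100 nM quencher-labelled ATP aptamer on a modified Illumina MiSeq flow-cell, first in selection buffer and then after 15 min with 500 uM ATP at 22 °C. The fluorescence ratio is summed target-cycle over summed buffer-cycle Cy3 intensity per cluster, averaged per switch-domain sequence, with clusters outside 100-1000 RFU excluded.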
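Note: ATP exposure 15 min at 22 °C before imaging.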

Sequence	switch fluorescence ratio
TACCCAGGGA	1.64 ± 0.13
GAGTTCCCGG	1 ± 0.011
GATCATTGTT	1.007 ± 0.0088
GGTTTAGGTG	1.14 ± 0.059
TAGGTGGGGA	1.01 ± 0.023
TTTTTTTTAG	1.07 ± 0.27
GGTTAATTAA	1.03 ± 0.019
TCCAGCGGGG	1.01 ± 0.047
TTACGGTAGG	1.01 ± 0.075
AGGCTTGGGT	0.982 ± 0.024
TTGATTTTTT	0.996 ± 0.029
TGTCCGGTTT	1.25 ± 0.36
ATTCGGGGAC	1.058 ± 0.009
TTCTTCATTT	1.22 ± 0.26
TCCAGCTGA	2.688 ± 0.015
TCGGCGGGGT	1.75 ± 1.3
GACCTAGCTA	1.14 ± 0.053
TGTTAAGGGC	1 ± 0.039
GAGGGTCTGT	0.9794 ± 0.0048
TTAAAACGGA	1.02 ± 0.036
ATCAAAGTTT	0.994 ± 0.042
TAGTATTTAG	1.024 ± 0.00096
TTGCGATGGG	0.995 ± 0.03
CATCGGCTCA	1.12 ± 0.067
CCTGCGGGG	1.11 ± 0.022

Sequence	switch fluorescence ratio
GCAGCGTTCT	1.04 ± 0.069
ATTATCTGCG	1 ± 0.011
CAAGGTAAAG	0.992 ± 0.013
GTTGATTCTA	0.988 ± 0.034
AATAGGCAAT	1.16 ± 0.034
GGGGGGGGAT	1.01 ± 0.029
GCTAATAGTT	1.01 ± 0.06
TTATTTATAT	0.971 ± 0.013
AAACTTTCTT	1.03 ± 0.021
GTGTGACTTC	0.988 ± 0.018
AAAGCGGGGA	1.04 ± 0.011
ATGCATACTG	1.03 ± 0.022
TAAAAAAGAG	0.98 ± 0.03
TGATGGGTAG	0.998 ± 0.028
AGGGGGTTGC	1.01 ± 0.026
GTGAGGGGGG	1.01 ± 0.013
TGAGGCAGGA	1.04 ± 0.042
TAAAAATAAA	0.995 ± 0.0065
AGTGGAGGTG	1.03 ± 0.043
GGTTTTTTGG	0.98 ± 0.021
GAATGGATGC	1.01 ± 0.0064
GGGGGAGACG	1.03 ± 0.075
GTGGGATGAT	0.9663 ± 0.0078
AAACTTGGGT	1.04 ± 0.024
TCAGAAGGGG	0.995 ± 0.0085

Sequence	switch fluorescence ratio
AAGAAAGTCT	0.995 ± 0.068
ACGTCTAGTG	0.965 ± 0.023
GTGGTGGGTC	0.975 ± 0.026
AAGTGGGAAC	1.02 ± 0.016
TTAGTGGGTT	1.01 ± 0.024
GGGAAAGAGG	0.991 ± 0.048
TTTGAGTGAC	1.01 ± 0.031
ACTATAATCA	1.04 ± 0.026
TTTAAATATT	1.02 ± 0.031
CGCTTTACCG	1 ± 0.051
TGAGCCCGGG	0.97 ± 0.013
AAGAAGTTGG	0.985 ± 0.038
TTACCTTTGG	1.005 ± 0.0087
GGGCCAGGGT	1.02 ± 0.0054
AGGGGTGAGC	1.02 ± 0.072
GCAAGAGGGG	1.06 ± 0.039
TTCACTCCGG	1.2 ± 0.071
GAGTGGGAGC	0.997 ± 0.066
AATAGGGTGC	1.07 ± 0.045
TCGAGTTTTT	0.996 ± 0.02
CTCAATTCAA	1.02 ± 0.015
GAAACTAGTG	0.996 ± 0.015
ACGCGTGAAG	1.03 ± 0.021
ATGTCTTTTG	1.03 ± 0.022
TATACCATGG	0.971 ± 0.046

Sequence	switch fluorescence ratio
GCCATTTGAC	1.02 ± 0.042
CAGCAAATGG	1.47 ± 0.26
GAGGGCTTAG	0.992 ± 0.016
ATGGGGAAGC	1.03 ± 0.058
CCGGGGGTTA	1.14 ± 0.23
GGCGTAAGTG	0.953 ± 0.027
CCAGCTGGCT	1.026 ± 0.0063
AATGTGCATA	0.988 ± 0.011
AGTTATAGTT	0.997 ± 0.052
GACTTTTGGG	1.01 ± 0.033
CTGTTATTGT	0.972 ± 0.024
TTTCGGGGGA	1.01 ± 0.032
CGGATGAGTA	0.988 ± 0.029
TGATTCTAAG	0.977 ± 0.019
TTGAAAGGAG	1 ± 0.026
TGATGGGGGG	0.994 ± 0.021
TTATTATAAT	0.982 ± 0.021
GGAGGGGGTG	0.989 ± 0.044
AATACTAAGG	1.04 ± 0.007
CAATGGAAGA	0.989 ± 0.014
CGGACTAACG	1.08 ± 0.053
TTGCTGTTGT	1.01 ± 0.022
AGGGGTAGTA	1.03 ± 0.04
CGGTTACCAG	1.03 ± 0.013
AATAAAGCCT	1.15 ± 0.29

Sequence	switch fluorescence ratio
GCGGGGCAAC	1.01 ± 0.064
CGTTGGAATC	1.12 ± 0.014
ATCTAGGTAC	1.06 ± 0.058
GTCATTGGGT	0.99 ± 0.021
GGAGGGCGTC	0.952 ± 0.0048
GAAAAGTGAG	0.975 ± 0.016
ATGCCTGTGT	0.977 ± 0.012
CGAAATTGTG	1.02 ± 0.022
TGCAGGAGAA	0.9718 ± 0.0087
ATAAGTTGTT	0.993 ± 0.02
AGTCAGATTC	1 ± 0.058
GCTATATGTA	1 ± 0.031
TTTCCAAGAA	1.03 ± 0.025
TTATGATTGG	0.987 ± 0.02
GGACGATGGG	0.995 ± 0.045
GGGCGGGGGC	1.02 ± 0.056
GGGTCGGGTG	1.03 ± 0.042
TATAAAGCGG	1.03 ± 0.048
TGACCACCAG	0.993 ± 0.019
TTTTTCAAAT	1.04 ± 0.076
GTGAGAAGAA	0.97 ± 0.01
TGCAGGTTTT	1.01 ± 0.054
TGTCGTAATT	1 ± 0.011
GCGTCAGGGT	0.973 ± 0.027
GAAGTATTGT	0.9951 ± 0.0062

Sequence	switch fluorescence ratio
GTTGTCAATG	0.974 ± 0.021
TTGTGGTATT	0.99 ± 0.0084
AAAAATGCGC	1.03 ± 0.017
CGGAGTCCGG	1.04 ± 0.059
GGTTGCAGCC	1.02 ± 0.026
AATATGGCCG	0.985 ± 0.037
GATAGCCCGT	0.99 ± 0.021
CGTGATGATG	0.982 ± 0.06
GATAGTGAGC	0.983 ± 0.036
AGGGGGATGG	0.996 ± 0.013
AGGGTTGGGG	0.991 ± 0.031
ATAAAGTTCC	1.13 ± 0.038
GGGGAGCGCG	0.981 ± 0.035
ACTGAAGGGG	1.02 ± 0.059
TAACCTGCCC	2.26 ± 0.12
GCTTGAGTTC	1.03 ± 0.025
AGTCGCACGA	0.986 ± 0.016
CGTTACACAA	1.04 ± 0.035
GGTGAGGGGT	0.997 ± 0.035
GAGGGGGACA	0.9779 ± 0.0081
ATGGGTTTGT	1.02 ± 0.021
ATTTATCCAA	1 ± 0.039
TGTTAGTGGG	1.02 ± 0.032
TTCCGTTGCG	1.16 ± 0.2
AGGAGGTCGG	0.991 ± 0.01

Sequence	switch fluorescence ratio
AGGGTAAAGT	0.98 ± 0.018
ATCGACCGGC	1.04 ± 0.071
TGTGCTAGGG	0.98 ± 0.028
CTGGGGAGTG	0.977 ± 0.029
TATCCTGGAC	1.05 ± 0.045
ATAGAACTAG	1 ± 0.011
CCGTAGAGGG	1.38 ± 0.043
GAGGCAGGGA	1.19 ± 0.16
TTGAAGCGTT	0.996 ± 0.018
ATAGCAGATG	0.991 ± 0.046
AGGTGGCGTC	1.03 ± 0.027
CCTGCCAAGA	2 ± 1.4
GTGCTAGGTT	0.984 ± 0.023
CCACATTGTA	1.01 ± 0.018
TAGGGCGTGC	0.9973 ± 0.0061
AAGTGTGTTT	1 ± 0.031
GAGGGTGGGA	0.983 ± 0.031
TTATTGACGC	0.937 ± 0.095
GAGTAGGGTT	0.983 ± 0.018
GCTTAACTTC	0.982 ± 0.039
TTCTGTTAGC	1.03 ± 0.043
AGGGTTCGGG	1.01 ± 0.031
GGGGTTCATG	0.9675 ± 0.006
ACTACGCTTG	1.29 ± 0.022
CCTTTTGGCT	0.964 ± 0.014

Sequence	switch fluorescence ratio
TGGAGTGGAG	0.989 ± 0.023
ATTAAATTAA	1.034 ± 0.01
AGTCGATTTT	0.978 ± 0.012
GTGGTACGTG	1 ± 0.064
TTCGGGAGGA	0.971 ± 0.038
AGGGTAACTT	1.01 ± 0.023
TTGGGGGGT	1.06 ± 0.012
TGTTTGAAGC	0.9679 ± 0.0096
AGATGGGGAG	1.04 ± 0.064
TTTATATTCG	0.989 ± 0.033
AGGCTTACCC	1.01 ± 0.018
TGAATGCTTT	1.23 ± 0.3
GTTTGGGGCC	1.057 ± 0.01
AGGGAAAATG	0.967 ± 0.033
TTCTTAAATT	0.981 ± 0.019
TCGTACAGTA	1.02 ± 0.029
GACGAAGTTG	1.01 ± 0.029
GGAGGGTTGG	0.998 ± 0.059
CGCTGATTAG	1.041 ± 0.0092
GAAACTAGAG	0.986 ± 0.0047
CGTTTATAGG	1.015 ± 0.009
TAGTTTTAGA	0.98478 ± 9.2e-05
AATTAGTTGG	0.9923 ± 0.0071
GTTCGCGGGG	1.06 ± 0.12
AAACGGGGGC	1 ± 0.085
